Experimental data taken from the DeepSol protein solubility set.

Assay: soluble on expression in E. coli; label from the status in PepcDB or PDB records

Sequence | soluble on expression in E. coli
MAHHHHHHMATPRHGDLDSICSLSSSENSPRGGGQSSERLIDLLTRPCAQGGYGGRLNYTGFATLAASLGWNQEDMDDCWYDIVMGEPCAEAVDMKRVAECVCSYCLASPLPILEHSTLAKSSAAKPATPPRLPHASRERSTTVLLSPPTPRFRRAESVASTLPKTGDKQRVTTATASPSQACAHRRCTAPNVFPRYAVETVSSEQKKASLSPGRGSHRPHNRRTTAKSSRQTSPAPTLSQTSGPSGCSVFSRLYEKGMEQHRKRIAVKPVDSDAAECTFQPHITPYTPKAADTASVHYNKPTESYFAKLTAPGTPPDAICASPETPRVTYHPAPGPSSDVPAGYVEGVARLRSYIASRYAHATFASSLRGSSSADVAHLVEAPILRLPVTVRGVTDAVDVRLASPDTRASLGRECSVGPRRPCFRQRCEARHVSFPSPSRVRFQS | soluble
MAHHHHHHMAVVVVQVGQCGNQLGDELWRQLKLTTNSGALPSPFFTRDRRARCVLVDSEPKVVTAVYERQKDVLRAENVIHGQSGRGNHWALGYYGVNDPLSHRAAENAVVARPFQVVKDQRRCDSHVVRNALRAIHAETRRTDDVMEFEAIIVLHSLVGGTGSGMATRLLEKIRYYFIEPLDSSLTVDECEEAEMMRHDGLDGMMMEKRRASYLVSITVAPQAVGELSTQGLNAALTLHALQENANAVLLLRNDDCIRVQEDSCAGGRPRGRGNTSFSTPSFSSIPSCATFKEINEVFLTMLLPILLYGRSTNAVGELVLKCSPNPREINNILTILPTPQRHYLRFKESVTVSRLYVLRGAMQNMPGVYPSVPIELIHTARSLRNPNLVTSREEVQVPKELLKGLKETAATRRSASVTLLQQMEGVLVLNEARELNAAVLFRLLRSAAMKVKAGAFLSTFEDMGMTAECIQAAIREVATRLSAAEEI | not soluble
MAHHHHHHMCLLSFFSLYPLGSFSSGKSNMDTPPISDDDKEVIDRLFASDVPQSLSRHAVLILHYHRTVFGSMVPSNVLLAGCLLYSCKWLSYPSGNSFLKNYFQGMKTSDIVGLEMVLHGTVRQNFMLVEACLRSEMSEIVRLNDVPHNRERIVLVCLNLVRALYRTRWCLLPETAARGALLVACEMCDVHLKSLPESFNTTMVTCAVDYLRSIFAQSRC | not soluble
MAHHHHHHMCLVKLYKRCFVRVPPHCVTVVYETRRNSILASSMEEANNELPQVSHFRPLMYIVSLLLYRSKKLVIVPPTSFFSTFTLPCSVLDESGDGEVVDCTVEDIHVTDGSVRMVMTIRYCIPINELERYLAAVGPTAPNERIALAAAGAARARGAELSVGLIINKSKRDTAFLEPFRAHLSSKLMSESCVKVLDVVVEAAEIADRSLGG | not soluble
MAHHHHHHMCSTNQKLACCSGDNVFDTKENENDSYPQMVNKQLPPKVLEPIVQNKIVEVPKEVYLEKIVEVPQIKTVERIVEQIRPVIKYKNVYKTKTVYVEKIKNVDRIIYQEKIVEVPQIKTVEKIVEVPVYVDRERIITAPRYMVVEKVIPVLKTTKKESVMEIPEVNCPNIDITQEVESKEEIQIEDLKENQTTSVVHEKDIQLLNDLNIQKMHSSATLNAEADQDTTADTIQNDNFCSTVSCKFLPMYDNFPKMQYSMCNGFPEREKRFSSINIYKSKEEGFPKIRISKTPQIIQRNCYCNYA | not soluble
MAHHHHHHMDAKLEARMASVWEVVSSRHAVEATDLSLIQNVTRALAAMHERVEQQHAELTRWHRQNYKLMCTMVVHVNWREEDHRQLRDELVNVRQQLGRVAVRGDVPLLRPRNGG | not soluble
MAHHHHHHMDAVKRHSQSTWPVSMPPLHAGTQEERMTGEEAGSSTKHTEGTNDRREKHRHGPHPGRRLHTSPHTHTHHRSAVSLRVRGFGPPHNKRTHRQQLTTNDKEEKRHTAATVSSSVPRPTGYGHSPAANTQHARSKLSHKVPHAEAGPHPPMTRRLTPCGHTECTDSPIERIRRPSLKAASVIDGP | soluble
MAHHHHHHMDEYDYNYATYDIDNFTNNFEDNLINYNQIDFINDNAEINNYSNEYYAYDEDLVEENVSEKRIHNKVLLSNDNEFDNNLINISNEIKTENSNNDTSLLKKRKIINDILLNIKKKMKKNDTLCIICLQNEKKYTFTCCYEYYCSLECFKKHDQQKCRNQNKNEPKISGSHNINMDDIKNSNHQKYEDTYYYQNEEDINKKQNDKVIENTIKLDNENKKNEINNINDMDTTCSNFPNNNLSTSLLNNDNNIPNNNENSESSDDYTDDYDMLTEEQKKKLKEDHTLKILLKNNYVREVFKQFTLSNDKIGYLSHYINDPTIVQVIDHIMKTIDDT | not soluble
MAHHHHHHMDKAKTLEVLRGMKFMQRKEEAKRRAAFEVAQRDEIERQLLHPGTGSSGASGGVSDGGSSALRDRGGGGPVRATVLYDDSFPTHAYSLSRRSFTETLGGGGAIPVAAGLGDTDAHLEGSAVESRVSLKDVGEAQASADAALDDSDVASDEEVADLWGGEDAEGELNDPTAASDRRNQGVKRTRDRRGDRNQHACSDGRFIVKPSLRAPKLPRRLQETVAEQKRQRAEEEGDMNM | soluble
MAHHHHHHMDKLISNNKLKLSVVLLGGLCSLAYYHLKNKFHLSQFCFSKKWFSEFSIMWPGQAFSLKIKKILYETKSKYQNVLVFESTTYGKVLVLDGVIQLTEKDEFAYHEMMTHVPMTVSKEPKNVLVVGGGDGGIIRELCKYKSVENIDICEIDETVIEVSKIYFKNISCGYEDKRVNVFIEDASKFLENVTNTYDVIIVDSSDPIGPAETLFNQNFYEKIYNALKPNGYCVAQCESLWIHVGTIKNMIGYAKKLFKKVEYANISIPTYPCGCIGILCCSKTDTGLTKPNKKLESKEFADLKYYNYENHSAAFKLPAFLLKEIENI | soluble
MAHHHHHHMDKYTKVKNIGKGNMGTCTLARNNEDGKYYVIKQVDLTRMSKKDRQQSLNEARVLSSLRHPNIINYVDSFLARKSDNLCIVMEYAESGDVCTRLKKHYGVNVPERQVVDWLIQLVLSLDYVHQRKILHRDVKTQNIFLTHENLIKLGDFGIARTLANTYDQAQTFVGTPYYLSPELILEQPYDHRSDVWALGVVLYEMLTLKHPFNAKDMKGLLQRILAVHYDPLPTMYSAELRDIVARMLVRDPAGRIKLDEILQIPIVRERIRQWLKEPDVVPQHYVRSLCKHHLLPDFQDEATAMPSTRSAARAAAAMAHEEWRTTSEATSAQTDGDVCARKDTDTRPHVTLGGPFSIPSTAARTAAAVCTSSADEESSDGVRPSIPPLKPYSNLPQLGMASPQLYTPQLPQMHPRVQSNNRASSPSRLFRSPFSTPSVARSAALPISRQQGDPVSQSSPAPLPLQRPIARAKAPTRPYARPYVAQPHLSPSPGYLFAANPRKNPIDARRQQSSRPSGPYLNPLFAAPRQMAPAYRSLVPPLPPPPDIKAMLQRAAAERARR | not soluble
MAHHHHHHMDYAAAIKQQAEDLQDELKDLALWQEEVARQHEVNKMKKSATFVTNSVPPIRGTVPSLKEAVLKSAGVVEKEDPVKKQKDKGNELFQSGKLQEAVEAYAVGIDLDPEGPMAHVLYGNRALCYLKLERWSDAERDASSCVRLNRTYAKGYFRRATARKQLGNLKGARTDLEAVLALSPNDVSATNEMSLVTKMIRADRDGAEPVTRKKIVITEVDDDDDEQCVGEGAQDKTASPSVIESNTGRHPNTVGDQVVKNEIAELERFRAAQRDAQEARSRERETKLQYKGRTSSRVEIVEEINNESKEGVVVSSSPLSLNNGVTSASAQECPSRELAAVSTSGAAQRPATFKDKKMNEPVVPRMLKPTVKWTKDTLKAPKSFTEFERVFLDLKDDEELLCFYVSVIPPGSMQVLFGSNMTPDILLGMLKAAGRLSGTSTVSFLKGLCTVKRVRDISLFFDDCEKKVVEEVMDVVVSCGASDEDVSLFRRQLGVI | soluble
MAHHHHHHMDYRQKAARLPRSAEEKSRWRRVIIILEHCPLAVVRGKYGFELLAERHRAHHARYKQDPAEWRPDVVHQALLHLMDSPLNRAGMLQVFLRTKKGVVIAVDPRLRVPRHMRLFEKMMVSCLYRMKVRAANGSVSLLRVVKNPVTDHIPANCTLIRVEKDGDAVPDIFAYCATCGTNRHADGSTSENVGTATACSSSAGSDAKEPHFAQKHRDLADAKQFRPFAFIIGGMSKGDVDAPYAPRAQVKSIRLGDRGMSAAAACSVIIHGFEEEWLREDNEAC | not soluble
MAHHHHHHMEDNDWTGHHSGDGDQNEGMMLNRMEAVMDEVEKLRNLNGALTLELQLAEKKLVIRHERIETLKHGLRQECAAKQELQRTLEAERVCHQAQLQDARNDALHWRQLYDDLLNNSHTRSRKHNGRHRNEHRSSTPTLEAALTSREPSSLADSPVAMGHGIIVKPIRGGGQKELN | soluble
